Among the data in PMC7237784 are binding values, retold here.

The data set deals with T1, AcFur (Acidithiobacillus caldus MTH-04) (UniProt A0A060A2G1).
T1 sequence: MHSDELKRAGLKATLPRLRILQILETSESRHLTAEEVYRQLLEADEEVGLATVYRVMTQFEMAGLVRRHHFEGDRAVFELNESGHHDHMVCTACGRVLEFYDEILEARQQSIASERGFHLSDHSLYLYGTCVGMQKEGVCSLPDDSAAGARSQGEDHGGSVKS
Put plainly: EMSA. Particulars: EMSA: 0.4 nM DNA, 0/2/4/8 nM protein, 10 mM Tris-HCl pH 8.0, 100 mM NaCl, 1 mM MnCl2, room temperature, 30 min; 5% native PAGE in 0.5x TBE, EB stain.

For “GCGTAGGACGTCCTTGATAACTGCAACTAAGTTGCATATATTCCGCACGACCACTCCGCGCGTCCCTGGGGAGCTTGACCGGTAAGTCTATTTATTGAATGATAATGATTAGCATTTATATTATTTGGAGAGATTGTCCATGCGTCGTATACCCCTCTGTGCGCTGCTGAGCACCATGCTTGCTTCCAGC (double strand) [feoP promoter]”, the binding entry is reported as “binds”.
On to “TTCCACCTGCTCACCTGCGCGGGCCGAGCTCAGGCGGTGGGGGGAAAGGACTTGGGTCATGACGCTCACACTCCCAACGAGTTCGTGGGGACACTATATCATAATGGTAATCATTTGCAATATCAGCCCAAGGGAGGGCCGTCCCGGCGGACGCAGCCGCCGACGCTCAGTCCAGGTCGCCGTGCCTGGGTGTAAAACGC (double strand) [feoABC operator (feoA promoter)]”, for which the binding entry was “binds”.
